According to paper PMC9225675 (mAbs, 2022):

Molecular target: T1, LukF component of Panton-Valentine Leukocidin (LukF-PV) (Staphylococcus aureus, strain )
T1 chain: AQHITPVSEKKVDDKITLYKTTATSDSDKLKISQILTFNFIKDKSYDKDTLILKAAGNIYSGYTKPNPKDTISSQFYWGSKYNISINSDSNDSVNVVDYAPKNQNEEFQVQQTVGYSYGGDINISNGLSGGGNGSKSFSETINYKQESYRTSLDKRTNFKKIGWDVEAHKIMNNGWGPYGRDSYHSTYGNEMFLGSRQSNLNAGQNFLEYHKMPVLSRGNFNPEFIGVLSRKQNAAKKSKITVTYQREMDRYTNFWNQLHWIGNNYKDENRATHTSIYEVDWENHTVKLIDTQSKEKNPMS
Test: BLI

B1: H5 mAb (broadly neutralizing antibody) (antibody, V domains shown)
VH: EVQLQESGPGLVRPSETLSLTCAVSGYSISSGMGWGWIRQPPGKGLEWIGSIDQRGSTYYNPSLKSRVTISVDTSKNQFSLKLSSVTAADTAVYYCARDAGHAVDMDVWGKGTTVTVSS
VL: DIQMTQSPSSVSASVGDRVTITCRASQGISRWLAWYQQKPGKAPKLLIYAASSLQSGVPSRFSGSGSGTDFTLTISSLQPEDFATYYCQQGYVFPLTFGGGTKVEIK
Kd: 0.4 nM
